Legend:
[1] = format: physicochemical
Experimental: Stabilities of TLPs were determined at different temperatures. Shown are the first-order inactivation curves for TLP-ste incubated at 80° C. (Δ) and 90° C. (+), thermolysin at 90° C. (Δ), and the 8-fold mutant at 100° C. (●), respectively. […] Samples, taken at the various time points, were quickly cooled on ice (15 s) and transferred to 50° C. to prevent cold denaturation. Residual activity was determined using casein (0.8%) as a substrate in 50 mM TrisHCl (pH 7.5), 5 mM CaCl2 as described previously (Eijsink, V. G. H., Veltman, O. R., Aukema, W., Vriend, G. & Venema, G. Nature Struct. Biol. 2, 374-379 (1995)).

casein [2] = assay: Hydrolysis of 10% (w/v) casein compared with commercial enzyme preparations; format: biochemical; details: casein 10% w/v
Text: (§1) In industrial applications enzymes are used for the hydrolysis of protein preparations derived from different sources. Here we show the results of a comparative study in which the rate and quality of hydrolysis of casein and yeast protein preparations by the 8-fold mutated TLP-ste variant was compared with that obtained by the hydrolysis using 3 different enzyme preparations that are used for these purposes in industry. The hydrolysis conditions were chosen such that they were optimal for each of the enzyme preparation under study. The hydrolysis products were separated in an acid-soluble and a not acid-soluble fraction. The amount of acid-soluble protein material formed upon hydrolysis was determined by means of measuring the absorbance at 275 nm, whereas the composition of the acid-insoluble hydrolysis products was studied using SDS-PAGE.
(§2) Substrate (10% w/v of casein or yeast protein preparation) was incubated in 50 mM Tris-MES, 5 mM CaCl2, pH 6.5 at 50° C. (Enzyme I, Favourzyme™ 1000L); 50 mM Tris-MES, 5 mM CaCl2, pH 6.0 at 60° C. (Enzyme II, BioProtease N100L); 50 mM Tris-MES, 5 mM CaCl2, pH 8.0 at 60° C. […] The amount of acid-soluble protein released by hydrolysis was determined by measuring the absorbance of the samples at 275 nm. The acid precipitated proteins were redisolved in 6 M urea and subsequently analysed by SDS-PAGE (15% running gel).

β-Casein = assay: Proteolytic (cleavage) specificity on β-casein, reversed phase peptide pattern; format: biochemical; details: moderate and high temperatures (60° C. and 100° C.)
Experimental: FIG. 3. Typical proteolytic specificity of TLP-ste and the 8-fold mutant β-Casein (1 mg/ml) was incubated with TLP-ste or the 8-fold mutant at a molar ratio of 1000:1 for 1 hour at 60° C. and 100° C., respectively. Under these conditions β-casein behaves as a non-compact and largely flexible structure. The peptides resulting from hydrolysis were derivatized with dansyl-chloride. The proteolytic products were separated by loading a sample corresponding to 50 μg β-casein on a reversed phase column (RP-304, Bio-Rad Laboratories, Watford, Herts., UK). The mobile phase used was 50 mM NaAc, pH 5.2. Peptides were eluted with a linear gradient from 0-60% acetonitrile at a flow rate of 1 ml/min. Absorption of the eluting peptides was monitored at 254 nm.

[3] = system: α-amylase from Bacillus licheniformis; assay: Hydrolysis of protease resistant α-amylase (SDS-PAGE); format: biochemical; details: 60 minutes
Experimental: As an example of the enzymatic activity of the 8-fold mutant we tested the hydrolysis of protease resistant α-amylase from Bacillus licheniformis by the 8-fold mutant. B. licheniformis α-amylase (1 mg/ml) in 50 mM MOPS, pH 7.0, 5 mM CaCl2, 0.01% Triton X-100 was incubated with purified TLP-ste (1 μg/ml), the 8-fold mutant or without protease for 60 minutes at the temperature indicated. The reaction volume was 500 μL. […] Precipitates (only observed in the 100° C. samples) were collected by centrifugation and redissolved in 500 μL 6 M Urea. Both supernatants and redissolved precipitates were subjected to standard SDS-PAGE, including pre-treatment with sample loading buffer (5 minutes at 100° C.). The samples were identical in size (20 μL supernatant and 20 μL dissolved precipitate). Gels were stained with Coomassie-brilliant blue.

[4] = system: yeast protein preparation; assay: Hydrolysis of 10% (w/v) yeast proteins compared with commercial enzyme preparations; format: biochemical; details: yeast proteins 10% w/v
Text: as §1, §2

casein [5] = assay: Specific activity with casein as substrate at 37° C.; format: biochemical
Experimental: (§3) Specific activities for TLP-ste and the 8-fold mutant were determined using casein (0.8%) as a substrate in 50 mM Tris-HCl (pH 7.5), 5 mM CaCl2 at 37° C. […] (pH 7.0), 5 mM CaCl2, 5% or 1% DMSO, 0.5% isopropanol, 0.01% Triton X-100, 50 mM NaCl, with […] of substrate, by measuring the decrease in absorption at 345 nm (Î345=−317 M^−1·cm^−1). Stock solutions of the furylacryloylated dipeptides, (Sigma, St. Louis, […].) were prepared by dissolving 3-(-2-furylacryloyl)-L-glycyl-L-leucine amide (FaGLa) and 3-(-2-furylacryloyl)-L-alanyl-L-phenylalanine amide (FaAFa) in DMSO. The kcat/Km ratios of the enzymes were determined by varying the enzyme concentrations (over a 50 fold range) under pseudo-first order conditions by measuring the initial activity, essentially according to the method described by Feder^30. The Ki for phosphoramidon (N-[a-L-rhamnopyrano-syl-oxyhydroxyphophinyl]-L-leucyl-L-tryptophan) was determined by a 30 minute preincubation of a 100 pM protease solution with varying concentrations of the inhibitor (10^−8 to 10^−3 M), in 50 mM MOPS (pH 7.0), 5 mM CaCl2, 50 mM NaCl, prior to the addition of the furylacryloated substrate. For determination of the Ki FaAFa was used as the substrate. Since the Km of the substrate for the enzyme is higher than the concentration used, IC50 values were taken to be equal to Ki values. The optimum temperature for activity was determined by incubating proteases with casein (0.8%) in 50 mM Tris-HCl (pH 7.5), 5 mM CaCl2, at different temperatures for 30 minutes, after which the amount of released peptides, indicative for activity, was measured^11.

casein [6] = assay: Optimum temperature for activity with casein; format: biochemical
Experimental: as §3

[7] = enzyme 0.05% v/v, pH 7.0, 90° C.

B1: 8-fold mutant: TLP-ste with A4T, T56A, G58A, T63F, S65P, A69P and a disulfide bridge G8C-N60C (protein)
chain: VAGTSTVCVGRGVLGDQKYINTTYSSYYGYYYLQDNTRGSGIFTYDGRNRTVLPGSLWADADCQFFAPYDAPAVDAHYYAGVVYDYYKNVHGRLSYDGSNAAIRSTVHYGRGYNNAFWNGSQMVYGDGDGQTFLPFSGGIDVVGHELTHAVTDYTAGLVYQNESGAINEAMSDIFGTLVEFYANRNPDWEIGEDIYTPGVAGDALRSMSDPAKYGDPDHYSKRYTGTQDNGGVHTNSGIINKAAYLLSQGGVHYGVSVNGIGRDKMGKIFYRALVYYLTPTSNFSQLRAACVQAAADLYGSTSQEVNSVKQAFNAVGVY
- half life at 100° C. [1]: ~3 h
- half-life at 100° C. relative to the wild-type [1]: more than 1000 times
- half-life 80° C. ([1]; buffer, pH 5.3): stable
- half-life 90° C. ([1]; buffer, pH 5.3): stable
- half-life 100° C. ([1]; buffer, pH 5.3): 170 min
- range of hydrolysis products (SDS-PAGE) versus the other enzymes (casein [2]): much broader range of hydrolysis products
- rate of hydrolysis and acid-soluble protein products versus the other enzyme preparations (casein [2]; [7]): more rapidly and that more acid-soluble protein products are produced
- cleavage specificity, effect of the stabilizing mutations (β-Casein): largely unaffected
- degradation of B. licheniformis α-amylase ([3]; 80° C. and lower): No significant degradation
- hydrolysis of B. licheniformis α-amylase ([3]; 100° C.): completely hydrolysed
- range of hydrolysis products (SDS-PAGE) versus the other enzymes [4]: much broader range of hydrolysis products
- rate of hydrolysis and acid-soluble protein products versus the other enzyme preparations [4, 7]: more rapidly and that more acid-soluble protein products are produced
- specific activities at 37° C., wild-type versus mutant (casein [5]): identical
- Specific activity casein (casein [5]; casein 0.8%, pH 7.5, 5 mM CaCl2): 3.9 ± 0.7 (U/mg) × 10^−3
- rise of temperature for optimum activity versus wild-type (casein [6]): 21 °C
- Topt (optimum temperature for activity) (casein [6]; casein 0.8%, 30 minutes): 95 °C

From patent US6518054B1, “Metallo-endopeptidases” (Rijksuniverstteit Te Groningen, priority 1997, dated 2003)
